Results from patent publication US20220073922, “Aptamers and use thereof” (Aptitude Medical Systems, Inc., published 2022).

T1: VEGF-165 (VEGFA isoform 165) (Homo sapiens)
T1 chain: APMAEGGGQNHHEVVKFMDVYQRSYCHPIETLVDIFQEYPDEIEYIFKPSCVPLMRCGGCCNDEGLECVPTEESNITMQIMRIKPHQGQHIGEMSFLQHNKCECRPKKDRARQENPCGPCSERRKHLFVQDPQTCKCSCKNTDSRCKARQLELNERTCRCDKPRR


Experiments:
[1] = target: T2, VEGF-121 (VEGFA isoform 121) (Homo sapiens, UniProt P15692 SEQ:1-121); assay: flow; PBSMCT, 37 C; details: chain copies: 2 (inferred), label: biotin
Protocol: (§1) Truncated and modified variants of the anti-VEGF aptamers of the present disclosure were prepared by LGC Biosearch Technologies (Novato, Calif.), and their binding affinity to corresponding targets were examined. Briefly, the equilibrium binding constants of the enriched libraries were measured using magnetic bead partitioning. Biotinylated anti-VEGF aptamers were conjugated to the 1 μm streptavidin-coated MyOne Streptavidin Cl magnetic beads (Thermo Fisher Scientific, 65002). Binding assays were performed by incubating fixed concentration of anti-VEGF aptamer (0.01 nM) and target protein at concentrations ranging from 10⁻¹² to 10⁻⁸ M in PBSMCT buffer (DPBS, pH 7.2 with 2.5 mM MgCl₂, 1 mM CaCl₂) and 0.01% TWEEN-20) at 37° C. for 90 minutes. Bound target protein was partitioned by magnetic separation and subsequently labeled via fluorescent anti-VEGF or anti-His-tag antibody. The fraction of anti-VEGF aptamer bound was quantified by flow cytometry (BD Accuri C6 Plus). Raw binding data were corrected for nonspecific background binding of target protein to empty magnetic beads. The fraction of bound anti-VEGF aptamer was plotted as a function of protein concentration and a non-linear curve-fitting algorithm (Langmuir one-site binding model) was used to extract equilibrium binding constants (KD values) from the data (FIG. 1).

[2] = target: T1, VEGF-165 (VEGFA isoform 165); assay: flow; PBSMCT, 37 C; details: chain copies: 2 (inferred), label: biotin
Protocol: as §1

[3] = target: T2, VEGF-121 (VEGFA isoform 121); assay: flow; details: chain copies: 2 (inferred); label: biotin
Angiopoietin-2 (Ang2) [4] = target: T3, Angiopoietin-2 (Ang2) (Homo sapiens, UniProt O15123 O15123:19-496); assay: flow; details: tags: His tag, R&D Systems 623-AN; label: biotin
Angiopoietin-2 (Ang2) [5] = target: T3, Angiopoietin-2 (Ang2); assay: flow; PBSMCT, 37 C; details: tags: His tag, R&D Systems 623-AN; label: biotin
Protocol: Various mutations and truncated variants of a representative anti-Ang2 aptamer (AMS0525) were obtained and their binding affinity to Ang2 were measured using magnetic bead partitioning. Biotinylated anti-Ang2 aptamers were conjugated to the 1 μm streptavidin-coated MyOne Streptavidin Cl magnetic beads (Thermo Fisher Scientific, 65002). Binding assays were performed by incubating fixed concentration of aptamer (0.01 nM) and Ang2 protein at concentrations ranging from 10⁻¹² to 10⁻⁸ M in PBSMCT buffer (DPBS, pH 7.2 with 2.5 mM MgCl₂, 1 mM CaCl₂) and 0.01% TWEEN-20) at 37° C. for 90 minutes. Bound target protein was partitioned by magnetic separation and subsequently labeled via fluorescent anti-His-tag antibody. The fraction of anti-Ang2 aptamer bound was quantified by flow cytometry (BD Accuri C6 Plus). Raw binding data were corrected for nonspecific background binding of target protein to empty magnetic beads. The fraction of bound anti-Ang2 aptamer was plotted as a function of protein concentration and a non-linear curve-fitting algorithm (Langmuir one-site binding model) was used to extract equilibrium binding constants (KD values) from the data (FIG. 4A).

T3 sequence (O15123 19-496, one chain of several): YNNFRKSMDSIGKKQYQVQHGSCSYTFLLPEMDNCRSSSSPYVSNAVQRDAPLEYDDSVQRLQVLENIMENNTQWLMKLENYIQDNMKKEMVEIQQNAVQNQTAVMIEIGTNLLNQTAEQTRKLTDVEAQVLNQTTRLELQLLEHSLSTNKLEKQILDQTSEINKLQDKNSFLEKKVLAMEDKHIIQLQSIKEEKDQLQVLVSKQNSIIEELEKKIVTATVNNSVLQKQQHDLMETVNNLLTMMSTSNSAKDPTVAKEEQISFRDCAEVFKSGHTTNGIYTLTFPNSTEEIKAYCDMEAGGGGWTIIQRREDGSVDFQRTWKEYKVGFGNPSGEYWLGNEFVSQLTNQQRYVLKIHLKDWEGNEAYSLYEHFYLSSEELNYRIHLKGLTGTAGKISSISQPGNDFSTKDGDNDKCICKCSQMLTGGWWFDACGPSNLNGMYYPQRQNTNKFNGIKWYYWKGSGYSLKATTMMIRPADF

| Binder | Kd [1] | Kd [2] | further results |
| --- | --- | --- | --- |
| GCCGUGGAGAUGCGUUCCGUCGAGGAUCGGCUAACACGGC (ssRNA, 2'-F all positions) [AMS0425.12] | 0.126 nM | 0.678 nM | – |
| UUUCGCUAGAUGGCUAACACGUAUAUUUGUGGAGAUGCACUAGCG (ssRNA, 2'-F all positions) [AMS0421] | – | – | Kd ([1]; stem-loop with bulges): 0.045 nM; Kd ([2]; stem-loop with bulges): 0.096 nM |
| CGUGGAGAUGCAUUCUGUCGAGGAUUGGCUAACACGCGAA (ssRNA, 2'-F all positions) [AMS0425] | 0.092 nM | 0.102 nM | – |
| AMSB102 (ssRNA, 2'-F all positions) RNA: CGUGGAGAUGCAUUCUGUCGAAGAUUGGCUAACACGCGCAUAGAUAAGCCAACAAACGUACAUUCUCUGUUAGUAUUUUCUGCG | – | – | Kd [3]: 0.092 nM; Kd (Angiopoietin-2 (Ang2) [4]): 0.056 nM |
| GCCUUAGAUAAGCCAACAAACGUACAUUCUCUGUUAGUAUUUUCAGGC (ssRNA, 2'-F all positions) [AMS0525.3] | – | – | Kd (Angiopoietin-2 (Ang2) [5]): 0.033 nM |
| CGCAUAGAUAAGCCAACAAACGUACAUUCUCUGUUAGUAUUUUCUGCG (ssRNA, LNA at 1-4 and 45-48, 2'-F elsewhere) [AMS0525.6] | – | – | Kd (Angiopoietin-2 (Ang2) [5]): 0.029 nM |
| CGCAUAGAUAAGCCAACAAACGUACAUUCUCUGUUAGUAUUUUCUGCG (ssRNA, 2'-OMe at 1-4 and 45-48, 2'-F elsewhere) [AMS0525.5] | – | – | Kd (Angiopoietin-2 (Ang2) [5]): 0.043 nM |
| CGCUAGUGGCGAACACGUAUAUUUGUGGCGAUGCACUAGCG (ssRNA, 2'-F all positions) [AMS0421.4] | 0.471 nM | 1.92 nM | – |
| GCUCUUCAGCCCCGCGCCGGGUCCCACUCUGCGCCGCUC (ssRNA, 2'-F all positions) [AMS0401] | – | 0.087 nM | – |
| GCGUAGAUGGCUAACACUAUUGUGGAGAUGCACUACGC (ssRNA, 2'-F all positions) [AMS0421.3] | 0.051 nM | 0.098 nM | – |
| AMSB106 (ssRNA, 2'-F all positions) RNA: CGCAUAGAUAAGCCAACAAACGUACAUUCUCUGUUAGUAUUUUCUGCGCGCUAGAUGGCUAACACUAUUGUGGAGAUGCACUAGCG | – | – | Kd [3]: 0.043 nM; Kd (Angiopoietin-2 (Ang2) [4]): 0.031 nM |
| CAGGUGGAGAUGCAUUCUGUCGAAGAUUGGCUAACACCUG (ssRNA, 2'-F all positions) [AMS0425.10] | 0.107 nM | 0.652 nM | – |
| UCCGCUUGCGGAGCAGCUUCUGUAUUCUGC (ssRNA, 2'-F all positions) [AMS0407] | 0.761 nM | – | – |
| AMSB101 (ssRNA, 2'-F all positions) RNA: UUUCGCUAGAUGGCUAACACGUAUAUUUGUGGAGAUGCACUAGCGCGCAUAGAUAAGCCAACAAACGUACAUUCUCUGUUAGUAUUUUCUGCG | – | – | Kd [3]: 0.125 nM; Kd (Angiopoietin-2 (Ang2) [4]): 0.138 nM |
| CGCUAGAUGGCUAACACUAUUGUGGAGAUGCACUAGCG (ssRNA, 2'-OMe at 1-3 and 36-38, 2'-F elsewhere) [AMS0427.1] | 0.047 nM | 0.092 nM | – |
| CGCUAGAUGGCUAACACUAUUGUGGAGAUGCACUAGCG (ssRNA, LNA at 1-3 and 36-38, 2'-F elsewhere) [AMS0427.2] | 0.043 nM | 0.087 nM | – |
| GGAAAACAGUAUAAUGUCUUGUUUCUUCUC (ssRNA, 2'-F all positions) [AMS0410] | 11.8 nM | – | – |
| GCCGUGGAGAUGCGUUCCGUCGGGAUCGGCUAACACGGC (ssRNA, 2'-F all positions) [AMS0425.11] | 0.124 nM | 0.349 nM | – |
| CGCUAGAUGGCCUAACACGUAUAUUUGUGGAGAUGGCACUAGCG (ssRNA, 2'-F all positions) [AMS0421.5] | 0.511 nM | 0.879 nM | – |
| CGUGGAGAUGCAUUCUUCGAGAUUGGCUAACACG (ssRNA, 2'-F all positions) [AMS0425.3] | 0.245 nM | 0.981 nM | – |

| Binder | Kd [1] | Kd [2] | further results |
| --- | --- | --- | --- |
| AGUUAUUUGGUGGAGAGGAUCCAUUUAGCUUAUACAAUUC (ssRNA, 2'-F all positions) [AMS0419] | 0.095 nM | 0.99 nM | – |
| CCAACCGUGUAUCUGUCUUGCUUGCGGCGGUUUUGUUGUG (ssRNA, 2'-F all positions) [AMS0416] | 0.654 nM | 29.4 nM | – |
| CCGAUAAGCCAACAAACGUACAUUCUCUGUUAGUAUUCGG (ssRNA, 2'-F all positions) [AMS0525.4] | – | – | Kd (Angiopoietin-2 (Ang2) [5]): > 1 nM |
| GUGCUUCAUAUCCGUCCCCCCCUUGCUGCG (ssRNA, 2'-F all positions) [AMS0402] | – | 0.098 nM | – |
| AMSB105 (ssRNA, 2'-F all positions) RNA: CGCAUAGAUAAGCCAACAAACGUACAUUCUCUGUUAGUAUUUUCUGCGCGUGGAGAUGCAUUCUGUCGAAGAUUGGCUAACACG | – | – | Kd [3]: 0.123 nM; Kd (Angiopoietin-2 (Ang2) [4]): 0.052 nM |
| UCCUUAGAUGGCUAACACGUAUAUUUGUGGAGAUGCACUA (ssRNA, 2'-F all positions) [AMS0421.1] | 0.049 nM | 0.101 nM | – |
| AMSB104 (ssRNA, 2'-F all positions) RNA: CGCAUAGAUAAGCCAACAAACGUACAUUCUCUGUUAGUAUUUUCUGCGUUUCGCUAGAUGGCUAACACGUAUAUUUGUGGAGAUGCACUAGCG | – | – | Kd [3]: 0.087 nM; Kd (Angiopoietin-2 (Ang2) [4]): 0.159 nM |
| AMS0525 (ssRNA, 2'-F all positions) RNA: GCAUAGAUAAGCCAACAAACGUACAUUCUCUGUUAGUAUUUUCUGCACACCGUCGCUUAGU | – | – | Kd (Angiopoietin-2 (Ang2) [5]): 0.404 nM |
| GCGGAUUGGCUAACACGGUCGACGUGGAGAUGCAUUCCGC (ssRNA, 2'-F all positions) [AMS0430] | – | – | Kd ([1]; stem-loop with bulges): 0.104 nM; Kd ([2]; stem-loop with bulges): 0.176 nM |
| GGUUUAUCUUAACUUUCUGCUACGAUACAGUUUUUGUUGA (ssRNA, 2'-F all positions) [AMS0411] | 1.19 nM | – | – |
| UCCGCUUGCGGAGCACCUUCUGUAUUCUGC (ssRNA, 2'-F all positions) [AMS0409] | 14.2 nM | – | – |
| CGUGGAGAUGCAUUCUGUCGAGGAUUGGCUAACACG (ssRNA, 2'-F all positions) [AMS0425.1] | 0.294 nM | 0.356 nM | – |
| CGUGGAGAUGCGUUCCGUCGAGGAUCGGCUAACACG (ssRNA, 2'-F all positions) [AMS0425.8] | 0.287 nM | 0.876 nM | – |
| AUUCUGUCUUUUUAAAUAAUGUCCCCUUGUUGCACAUUACAGAA (ssRNA, 2'-F all positions) [AMS0403] | – | 0.111 nM | – |
| CCGGCCAUUGGUGGAGAUUAUCCUUUGAGUACGGUUAUUC (ssRNA, 2'-F all positions) [AMS0420] | 0.082 nM | 0.87 nM | – |
| GCUCUUCGGUGUUAACUACCAAUCGUUGAUCGUUUUGCAAAAAAUUCC (ssRNA, 2'-F all positions) [AMS0406] | – | 0.324 nM | – |
| GCUCUUCAAUGUUAACUACCAAUCGUUGAUCGUUUUGCAGAAAAUUCC (ssRNA, 2'-F all positions) [AMS0405] | – | 1.01 nM | – |
| UUCUGUCUUUUUAGAUAAUGUCCCCUUGUUGCACAUUACA (ssRNA, 2'-F all positions) [AMS0404] | – | 0.419 nM | – |
| UCCGCUUGCGGAGCAUCUUCUGUAUUCUGC (ssRNA, 2'-F all positions) [AMS0408] | 10.1 nM | – | – |
